From paper PMC4070910, “Cathepsin S Signals via PAR2 and Generates a Novel Tethered Ligand Receptor Agonist” (PLoS ONE, 2014)
Entries after “also recorded” stand apart in the source; their conditions may differ.

Tests used:
[1] = system: luciferase-PAR2 (native PAR2); experiment: Gaussia luciferase release, luciferase-PAR2; assay type: cell-based, human; conditions: cathepsin S 2 µM, 10 minutes, room temperature, triplicate
From the text: (§1) Gaussia luciferase cDNA was cloned, without its termination codon, into pcDNA3.1(−) as an Xho I-EcoR I fragment. Human PAR2 cDNA and its mutants, M1, M2 and M3, were generated using PCR primers designed to start after the signal sequence and end with a termination codon: […] and […] . The PCR amplified cDNAs were cloned into EcoR I and Hind III sites C-terminal to Gaussia luciferase cDNA. The resulting plasmids were called pGLPAR2, pGLPAR2M1, pGLPAR2M2 and pGLPAR2M3.
The plasmid DNAs pGLPAR2, pGLPAR2M1, pGLPAR2M2 and pGLPAR2M3 (10 µg of each) were transfected into 2×10^6 HeLa cells as described above and plated into 10 cm dishes. HeLa cells transfected with salmon sperm were used as controls. Forty-eight hours after transfection, the cells were washed twice with PBS, scraped and pelleted. Cells were scraped in order to eliminate the use of trypsin, which could activate PARs, and allowed for the luminescence assay to be performed in a small volume. Pelleted cells were resuspended into 200 µl PBS, and 100 µl of each was incubated with cathepsin S at a final concentration 2 µM for 10 minutes at room temperature. Untreated cells were processed by the same methods for a negative control. […] Luminescence assays were performed in triplicate on 50 µl of the supernatants according to the instructions of the manufacturer (New England Biolabs, Ipswich, MA).

cathepsin S = experiment: Cathepsin S digestion of the human PAR2 N-terminal peptide (LC/MS/MS); assay type: biochemical; conditions: cathepsin S 1 µM, pH 7.0, 37°C, 20 minutes; MS/MS sequencing
Protocol: Recombinant human cathepsin S was produced as follows. The human cathepsin S proprotein coding region was isolated by PCR using the forward and reverse primers […] CCTG and […] and a template of plasmid DNA containing the entire coding sequence of human cathepsin S. The PCR product was cut with Nco I and Xho I, and cloned into the pTYB4 expression vector from New England Biolabs for expression in E.coli. Cells were grown in LB medium induced with 0.3 mM IPTG, harvested by centrifugation, resuspended in lysis buffer A (0.5 M NaCl, 0.05 M Tris, 5 mM EDTA, pH 8.0) and lysed in a French press. The lysate was centrifuged and the protein was found predominantly in inclusion bodies which were dissolved in buffer B (10 mM DTT and 8 M urea), and refolded in the presence of buffer B containing 0.7 M L-arginine, 0.01 M glutathione, 0.001 M glutathione disulfide, and 0.005 M EDTA as described. […] The specific activity of cathepsin S was assayed using Z-VVR-AMC in fluorimetric and Z-FR-pNA in colorimetric assays[22] and determined to be 10,000 mU/mg protein.
A peptide comprising the N-terminus of PAR2, […], was dissolved in 50 mM Tris, pH 7.0, 0.1 M NaCl, 0.1 mM EDTA, and 0.01% Tween-20 to a concentration of 100 mM. […] The reaction samples were analyzed by the Harvard Microchemistry & Proteomics Analysis Facility (Cambridge, MA). […]

[2] = system: luciferase-PAR2M2 (glycine40 to alanine); experiment: Gaussia luciferase release, luciferase-PAR2M2; assay type: cell-based, human; conditions: cathepsin S 2 µM, 10 minutes, room temperature, triplicate
From the text: as §1
The QuickChange site-directed mutagenesis procedure (Agilent Technologies, Santa Clara, CA) was used to generate PAR2 N-terminal mutants. PAR2M1, with a single amino acid change, was created by substituting the leucine^38 codon, CTT, with alanine, GCT, using the primers: PAR2M1F, […], and PAR2M1R, […]. […]
The plasmid DNAs pGLPAR2, pGLPAR2M1, pGLPAR2M2 and pGLPAR2M3 (10 µg of each) were transfected into 2×10^6 HeLa cells as described above and plated into 10 cm dishes. […] Cells were scraped in order to eliminate the use of trypsin, which could activate PARs, and allowed for the luminescence assay to be performed in a small volume. […] Luminescence assays were performed in triplicate on 50 µl of the supernatants according to the instructions of the manufacturer (New England Biolabs, Ipswich, MA).

B1: cathepsin S: Recombinant human cathepsin S, cysteine protease, expressed in E.coli, refolded and activated (protein, UniProt P25774 115-331, looked up)
Cathepsin S: LPDSVDWREKGCVTEVKYQGSCGACWAFSAVGALEAQLKLKTGKLVSLSAQNLVDCSTEKYGNKGCNGGFMTTAFQYIIDNKGIDSDASYPYKAMDQKCQYDSKYRAATCSKYTELPYGREDVLKEAVANKGPVSVGVDARHPSFFLYRSGVYYEPSCTQNVNHGVLVVGYGDLNGKEYWLVKNSWGHNFGEEGYIRMARNKGNHCGIASFPSYPEI
receptor cleavage, luciferase luminescence (in words) [1]: cleaved the native and PAR2M1 receptors
cleavage points (in words) (cathepsin S): resulted in several cleavage points; also recorded: most frequent after glycine followed by leucine
receptor cleavage, luciferase luminescence (in words) [2]: did not cleave PAR2M2 or PAR2M3
